The text below walks through data of the RNAGym collection of RNA variant scans (doi:10.1021/acssynbio.7b00057).

B1: Pistol ribozyme (parent)
chain: GGGUCGUUGUUCCAUAAUCGCGUGGAUAUGGCACGCAAGUUUCUACCGGGCACCGUAAAUGUCCGACUGGAGCCGUUCGGGCGGCUAUAAACAGACCUCAGGCCCGAAGCGUGGCGGCACCUGCCGCCGGUGGUAAAAAAGAUCGGAAGAGCACACGUCU

Variants of B1 are the subject of this series. As to the kind of experiment: aptazyme ON/OFF ratio, guanine; higher = stronger switching; co-transcriptional cleavage with and without guanine.
As to GGGUCGUCAGUACAUAAUCGCGUGGAUAUGGCACGCAAGUUUCUACCGGGCACCGUAAAUGUCCGACUGGAGCCGUUCGGGCGGCUAUAAACAGACCUCAGGCCCGAAGCGUGGCGGCACCUGCCGCCGGUGGUAAAAAAGAUCGGAAGAGCACACGUCU [U8C G9A U10G C12A], the “aptazyme ON/OFF ratio” value is 1.16.
Next, GGGUCGCAUGCUAAUAAUCGCGUGGAUAUGGCACGCAAGUUUCUACCGGGCACCGUAAAUGUCCGACUGGAGCCGUUCGGGCGGCUAUAAACAGACCUCAGGCCCGAAGCGUGGCGGCACCUGCCGCCGGUGGUAAAAAAGAUCGGAAGAGCACACGUCU [U7C U8A G9U U10G U11C C12U C13A]: 1.16; GGGUCGUUGCCAAAUAAUCGCGUGGAUAUGGCACGCAAGUUUCUACCGGGCACCGUAAAUGUCCGACUGGAGCCGUUCGGGCGGCUAUAAACAGACCUCAGGCCCGAAGCGUGGCGGCACCUGCCGCCGGUGGUAAAAAAGAUCGGAAGAGCACACGUCU [U10C U11C C12A C13A]: 1.19; GGGUCGUCCUGUGAUAAUCGCGUGGAUAUGGCACGCAAGUUUCUACCGGGCACCGUAAAUGUCCGACUGGAGCCGUUCGGGCGGCUAUAAACAGACCUCAGGCCCGAAGCGUGGCGGCACCUGCCGCCGGUGGUAAAAAAGAUCGGAAGAGCACACGUCU [U8C G9C U11G C12U C13G]: 1.11.
Next, GGGUCGUUUUUGCAUAAUCGCGUGGAUAUGGCACGCAAGUUUCUACCGGGCACCGUAAAUGUCCGACUGGAGCCGUUCGGGCGGCUAUAAACAGACCUCAGGCCCGAAGCGUGGCGGCACCUGCCGCCGGUGGUAAAAAAGAUCGGAAGAGCACACGUCU [G9U C12G]: 1.75; GGGUCGAGCUAGCAUAAUCGCGUGGAUAUGGCACGCAAGUUUCUACCGGGCACCGUAAAUGUCCGACUGGAGCCGUUCGGGCGGCUAUAAACAGACCUCAGGCCCGAAGCGUGGCGGCACCUGCCGCCGGUGGUAAAAAAGAUCGGAAGAGCACACGUCU [U7A U8G G9C U11A C12G]: 1.34.
Consider GGGUCGGGAGUCGAUAAUCGCGUGGAUAUGGCACGCAAGUUUCUACCGGGCACCGUAAAUGUCCGACUGGAGCCGUUCGGGCGGCUAUAAACAGACCUCAGGCCCGAAGCGUGGCGGCACCUGCCGCCGGUGGUAAAAAAGAUCGGAAGAGCACACGUCU [U7G U8G G9A U10G C13G], for which the “aptazyme ON/OFF ratio” value stood at 1.11.
With GGGUCGUUAUGCUAUAAUCGCGUGGAUAUGGCACGCAAGUUUCUACCGGGCACCGUAAAUGUCCGACUGGAGCCGUUCGGGCGGCUAUAAACAGACCUCAGGCCCGAAGCGUGGCGGCACCUGCCGCCGGUGGUAAAAAAGAUCGGAAGAGCACACGUCU [G9A U11G C13U], the “aptazyme ON/OFF ratio” value worked out at 1.44.
Next, GGGUCGCGGACCUAUAAUCGCGUGGAUAUGGCACGCAAGUUUCUACCGGGCACCGUAAAUGUCCGACUGGAGCCGUUCGGGCGGCUAUAAACAGACCUCAGGCCCGAAGCGUGGCGGCACCUGCCGCCGGUGGUAAAAAAGAUCGGAAGAGCACACGUCU [U7C U8G U10A U11C C13U]: 1.01.
To GGGUCGCUCCUCCAUAAUCGCGUGGAUAUGGCACGCAAGUUUCUACCGGGCACCGUAAAUGUCCGACUGGAGCCGUUCGGGCGGCUAUAAACAGACCUCAGGCCCGAAGCGUGGCGGCACCUGCCGCCGGUGGUAAAAAAGAUCGGAAGAGCACACGUCU [U7C G9C U10C] belongs 1.14; to GGGUCGAGGCCCAAUAAUCGCGUGGAUAUGGCACGCAAGUUUCUACCGGGCACCGUAAAUGUCCGACUGGAGCCGUUCGGGCGGCUAUAAACAGACCUCAGGCCCGAAGCGUGGCGGCACCUGCCGCCGGUGGUAAAAAAGAUCGGAAGAGCACACGUCU [U7A U8G U10C U11C C13A], 1.06.
As to GGGUCGGGAGUUCAUAAUCGCGUGGAUAUGGCACGCAAGUUUCUACCGGGCACCGUAAAUGUCCGACUGGAGCCGUUCGGGCGGCUAUAAACAGACCUCAGGCCCGAAGCGUGGCGGCACCUGCCGCCGGUGGUAAAAAAGAUCGGAAGAGCACACGUCU [U7G U8G G9A U10G C12U], the “aptazyme ON/OFF ratio” value was found to be 1.29.
To GGGUCGCCUCUCCAUAAUCGCGUGGAUAUGGCACGCAAGUUUCUACCGGGCACCGUAAAUGUCCGACUGGAGCCGUUCGGGCGGCUAUAAACAGACCUCAGGCCCGAAGCGUGGCGGCACCUGCCGCCGGUGGUAAAAAAGAUCGGAAGAGCACACGUCU [U7C U8C G9U U10C] belongs 2.52.
Next, GGGUCGGCAACUGAUAAUCGCGUGGAUAUGGCACGCAAGUUUCUACCGGGCACCGUAAAUGUCCGACUGGAGCCGUUCGGGCGGCUAUAAACAGACCUCAGGCCCGAAGCGUGGCGGCACCUGCCGCCGGUGGUAAAAAAGAUCGGAAGAGCACACGUCU [U7G U8C G9A U10A U11C C12U C13G]: 1.13; GGGUCGUUUGUCCAUAAUCGCGUGGAUAUGGCACGCAAGUUUCUACCGGGCACCGUAAAUGUCCGACUGGAGCCGUUCGGGCGGCUAUAAACAGACCUCAGGCCCGAAGCGUGGCGGCACCUGCCGCCGGUGGUAAAAAAGAUCGGAAGAGCACACGUCU [G9U U10G]: 4.12.
Regarding GGGUCGACUGUUGAUAAUCGCGUGGAUAUGGCACGCAAGUUUCUACCGGGCACCGUAAAUGUCCGACUGGAGCCGUUCGGGCGGCUAUAAACAGACCUCAGGCCCGAAGCGUGGCGGCACCUGCCGCCGGUGGUAAAAAAGAUCGGAAGAGCACACGUCU [U7A U8C G9U U10G C12U C13G], the “aptazyme ON/OFF ratio” value was 1.72.
To GGGUCGUGGCCAUAUAAUCGCGUGGAUAUGGCACGCAAGUUUCUACCGGGCACCGUAAAUGUCCGACUGGAGCCGUUCGGGCGGCUAUAAACAGACCUCAGGCCCGAAGCGUGGCGGCACCUGCCGCCGGUGGUAAAAAAGAUCGGAAGAGCACACGUCU [U8G U10C U11C C12A C13U] belongs 1.05.
Next, GGGUCGUUCUAACAUAAUCGCGUGGAUAUGGCACGCAAGUUUCUACCGGGCACCGUAAAUGUCCGACUGGAGCCGUUCGGGCGGCUAUAAACAGACCUCAGGCCCGAAGCGUGGCGGCACCUGCCGCCGGUGGUAAAAAAGAUCGGAAGAGCACACGUCU [G9C U11A C12A]: 1.34.
